The nature of data set [1]: Purified pMT7/pMT10 reaction with auxiliary enzymes mtn and mtaD. The following applies: 20 μM SAH introduced in the purified enzymatic reaction. The class given is biochemical. An excerpt:
All the purified enzyme reactions were done in triplicates.
An alternative strategy to reduce SAH inhibition is to introduce auxiliary enzymes that degrade SAH12 (FIG. 18a). […] Noteworthy, with mtaD enzyme, cis-α-irone production by pMT10 was improved by ˜2.5 fold as compared to pMT10 reaction alone (FIG. 3c). […] This somewhat agrees with the effect of mutating D135, which abolishes the hydrogen bond interaction between pMT7 and the amine group of the adenine moiety.

The nature of data set [2]: In-vivo cis-α-irone production screening of pMT7 and pMT12 mutants. The following applies: for Fold change in in-vivo cis-α-irone production: mutations made to pMT12, normalized to pMT12 (=1). The class given is cell-based, Escherichia coli. In a few lines:
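E. coli BL21(DE3) ΔaroA ΔaroB ΔaroC ΔserC strains, with or without ΔmetJ, carried the plasmids and were grown in 1 ml auto-inducing defined medium (glucose/glycerol, 30 mM lactose) at 28 °C for 3 days. Products were extracted into hexane and measured by GC-MS. Production is a semi-quantitative fold change relative to pMT12.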

Data set [3] is described as follows: Cell lysate reaction of pMT enzymes with psi-ionone, irones quantified by HS-SPME-GCMS. The conditions noted are these: for in-vitro production of cis-α-irone (in words): single mutations vs parent (pMT7 or pMT12). The class given is biochemical. The essentials: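 pMT1 site-saturation mutants were expressed in E. coli BL21(DE3) and lysed, and lysates were incubated 2 days at 28 °C with 0.2 mM SAM and 10 mg/L psi-ionone (plus caryophyllene) in 50 mM Tris pH 7, 10 mM MgCl2. Cis-α-irone was measured by HS-SPME-GCMS peak area and given as fold change over non-mutated enzyme.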

B1: mtn: 5′-methylthioadenosine/S-adenosylhomocysteine nucleosidase, auxiliary enzyme hydrolysing SAH (protein, UniProt P0AF12 1-232, looked up)
5'-methylthioadenosine/S-adeno …: MKIGIIGAMEEEVTLLRDKIENRQTISLGGCEIYTGQLNGTEVALLKSGIGKVAAALGATLLLEHCKPDVIINTGSAGGLAPTLKVGDIVVSDEARYHDADVTAFGYEYGQLPGCPAGFKADDKLIAAAEACIAELNLNAVRGLIVSGDAFINGSVGLAKIRHNFPQAIAVEMEATAIAHVCHNFNVPFVVVRAISDVADQQSHLSFDEFLAVAAKQSSLMVESLVQKLAHG
On to B1, for which the “effect of supplementary auxiliary enzyme on pMT7 and pMT10 activity” value in data set [1] is “restored pMT7 and pMT10 activity”.

B2: mtaD: 5-methylthioadenosine/S-adenosylhomocysteine deaminase, auxiliary enzyme deaminating SAH (protein, UniProt Q9X034 1-406, looked up)
5-methylthioadenosine/S-adenos …: MIIGNCLILKDFSSEPFWGAVEIENGTIKRVLQGEVKVDLDLSGKLVMPALFNTHTHAPMTLLRGVAEDLSFEEWLFSKVLPIEDRLTEKMAYYGTILAQMEMARHGIAGFVDMYFHEEWIAKAVRDFGMRALLTRGLVDSNGDDGGRLEENLKLYNEWNGFEGRIFVGFGPHSPYLCSEEYLKRVFDTAKSLNAPVTIHLYETSKEEYDLEDILNIGLKEVKTIAAHCVHLPERYFGVLKDIPFFVSHNPASNLKLGNGIAPVQRMIEHGMKVTLGTDGAASNNSLNLFFEMRLASLLQKAQNPRNLDVNTCLKMVTYDGAQAMGFKSGKIEEGWNADLVVIDLDLPEMFPVQNIKNHLVHAFSGEVFATMVAGKWIYFDGEYPTIDSEEVKRELARIEKELYSS
Regarding B2, in data set [1], the “effect of supplementary auxiliary enzyme on pMT7 and pMT10 activity” value was “restored pMT7 and pMT10 activity”.

B3: pMT12: pMT1 with Y200F S182E L273V L180A A202L Y65F C156D T91P N231D (protein)
chain: MPQEARTPQQQVTADEVGDWYDKFGEVYHLTLGESVHCGLWFPPDAPVPQDMELVTMSSQAQDRFTDYLIETLDPKAGQHLLDIGCGTGRPALKAARQRGIAVTGVAVSKEQIAAANRLAAGHGLTERLTFEVADAMRLPYEDESFDCAWAIESLDHMDRAKALGEAWRVLKPGGDLLVAEEVVTEELTEPETALFETLFALNVPPRLGEFFDIVSGAGFHTLSLKDLSADLAMTMNVFALGVYSRRAEFTERFGAEFVDGLLAGLGSAQETVIRKTRFFMATLRKPAV
modifications: Modified from pMT1
notes: pMT1 with Y200F S182E L273V L180A A202L Y65F C156D T91P N231D
For B3, in data set [2], the “Fold change in in-vivo cis-α-irone production” value (“Fold change” for short) is 1. Further, in data set [3] (cell lysate reaction, vs parent or control), the “irone production / methyltransferase activity towards psi-ionone (in words)” value was “maintained the percentage of cis-α-irone produced while further improving the absolute amount produced”.

B4: Q11V (protein)
chain: MPQEARTPQQVVTADEVGDWYDKFGEVYHLTLGESVHCGLWFPPDAPVPQDMELVTMSSQAQDRFTDYLIETLDPKAGQHLLDIGCGTGRPALKAARQRGIAVTGVAVSKEQIAAANRLAAGHGLTERLTFEVADAMRLPYEDESFDCAWAIESLDHMDRAKALGEAWRVLKPGGDLLVAEEVVTEELTEPETALFETLFALNVPPRLGEFFDIVSGAGFHTLSLKDLSADLAMTMNVFALGVYSRRAEFTERFGAEFVDGLLAGLGSAQETVIRKTRFFMATLRKPAV
modifications: Modified from pMT1
For B4, in data set [2], the “Fold change” value was found to be 0.88.

B5: A95C: pMT12 with A95C (protein)
chain: MPQEARTPQQQVTADEVGDWYDKFGEVYHLTLGESVHCGLWFPPDAPVPQDMELVTMSSQAQDRFTDYLIETLDPKAGQHLLDIGCGTGRPALKCARQRGIAVTGVAVSKEQIAAANRLAAGHGLTERLTFEVADAMRLPYEDESFDCAWAIESLDHMDRAKALGEAWRVLKPGGDLLVAEEVVTEELTEPETALFETLFALNVPPRLGEFFDIVSGAGFHTLSLKDLSADLAMTMNVFALGVYSRRAEFTERFGAEFVDGLLAGLGSAQETVIRKTRFFMATLRKPAV
modifications: Modified from pMT1
In the case of B5, the “Fold change” value in data set [2] is recorded as 0.95. Also, in data set [3], the “in-vitro production of cis-α-irone (in words)” value (shortened to “in-vitro production”) was “moderate increase”.

B6: F212L: pMT12 with F212L (protein)
chain: MPQEARTPQQQVTADEVGDWYDKFGEVYHLTLGESVHCGLWFPPDAPVPQDMELVTMSSQAQDRFTDYLIETLDPKAGQHLLDIGCGTGRPALKAARQRGIAVTGVAVSKEQIAAANRLAAGHGLTERLTFEVADAMRLPYEDESFDCAWAIESLDHMDRAKALGEAWRVLKPGGDLLVAEEVVTEELTEPETALFETLFALNVPPRLGEFLDIVSGAGFHTLSLKDLSADLAMTMNVFALGVYSRRAEFTERFGAEFVDGLLAGLGSAQETVIRKTRFFMATLRKPAV
modifications: Modified from pMT1
For the molecule B6, the “Fold change” value in data set [2] is on record as 1.11. In data set [3], the “in-vitro production” value is on record as “moderate increase”.

B7: Q11M (protein)
chain: MPQEARTPQQMVTADEVGDWYDKFGEVYHLTLGESVHCGLWFPPDAPVPQDMELVTMSSQAQDRFTDYLIETLDPKAGQHLLDIGCGTGRPALKAARQRGIAVTGVAVSKEQIAAANRLAAGHGLTERLTFEVADAMRLPYEDESFDCAWAIESLDHMDRAKALGEAWRVLKPGGDLLVAEEVVTEELTEPETALFETLFALNVPPRLGEFFDIVSGAGFHTLSLKDLSADLAMTMNVFALGVYSRRAEFTERFGAEFVDGLLAGLGSAQETVIRKTRFFMATLRKPAV
modifications: Modified from pMT1
For the molecule B7, in data set [2], the “Fold change” value came out at 0.90.

B8: E190A (protein)
chain: MPQEARTPQQQVTADEVGDWYDKFGEVYHLTLGESVHCGLWFPPDAPVPQDMELVTMSSQAQDRFTDYLIETLDPKAGQHLLDIGCGTGRPALKAARQRGIAVTGVAVSKEQIAAANRLAAGHGLTERLTFEVADAMRLPYEDESFDCAWAIESLDHMDRAKALGEAWRVLKPGGDLLVAEEVVTEELTAPETALFETLFALNVPPRLGEFFDIVSGAGFHTLSLKDLSADLAMTMNVFALGVYSRRAEFTERFGAEFVDGLLAGLGSAQETVIRKTRFFMATLRKPAV
modifications: Modified from pMT1
As to B8, the “Fold change” value in data set [2] is reported as 1.12.

B9: T185L (protein)
chain: MPQEARTPQQQVTADEVGDWYDKFGEVYHLTLGESVHCGLWFPPDAPVPQDMELVTMSSQAQDRFTDYLIETLDPKAGQHLLDIGCGTGRPALKAARQRGIAVTGVAVSKEQIAAANRLAAGHGLTERLTFEVADAMRLPYEDESFDCAWAIESLDHMDRAKALGEAWRVLKPGGDLLVAEEVVLEELTEPETALFETLFALNVPPRLGEFFDIVSGAGFHTLSLKDLSADLAMTMNVFALGVYSRRAEFTERFGAEFVDGLLAGLGSAQETVIRKTRFFMATLRKPAV
modifications: Modified from pMT1
B9: the “Fold change” value in data set [2] came out at 1.07.

B10: S268H: pMT12 with S268H (protein)
chain: MPQEARTPQQQVTADEVGDWYDKFGEVYHLTLGESVHCGLWFPPDAPVPQDMELVTMSSQAQDRFTDYLIETLDPKAGQHLLDIGCGTGRPALKAARQRGIAVTGVAVSKEQIAAANRLAAGHGLTERLTFEVADAMRLPYEDESFDCAWAIESLDHMDRAKALGEAWRVLKPGGDLLVAEEVVTEELTEPETALFETLFALNVPPRLGEFFDIVSGAGFHTLSLKDLSADLAMTMNVFALGVYSRRAEFTERFGAEFVDGLLAGLGHAQETVIRKTRFFMATLRKPAV
modifications: Modified from pMT1
Regarding B10, the “Fold change” value in data set [2] stood at 1.26. In data set [3], the “in-vitro production” value is recorded as “moderate increase”.

B11: H123N (protein)
chain: MPQEARTPQQQVTADEVGDWYDKFGEVYHLTLGESVHCGLWFPPDAPVPQDMELVTMSSQAQDRFTDYLIETLDPKAGQHLLDIGCGTGRPALKAARQRGIAVTGVAVSKEQIAAANRLAAGNGLTERLTFEVADAMRLPYEDESFDCAWAIESLDHMDRAKALGEAWRVLKPGGDLLVAEEVVTEELTEPETALFETLFALNVPPRLGEFFDIVSGAGFHTLSLKDLSADLAMTMNVFALGVYSRRAEFTERFGAEFVDGLLAGLGSAQETVIRKTRFFMATLRKPAV
modifications: Modified from pMT1
In the case of B11, the “Fold change” value in data set [2] came to 0.91.

B12: A107G (protein)
chain: MPQEARTPQQQVTADEVGDWYDKFGEVYHLTLGESVHCGLWFPPDAPVPQDMELVTMSSQAQDRFTDYLIETLDPKAGQHLLDIGCGTGRPALKAARQRGIAVTGVGVSKEQIAAANRLAAGHGLTERLTFEVADAMRLPYEDESFDCAWAIESLDHMDRAKALGEAWRVLKPGGDLLVAEEVVTEELTEPETALFETLFALNVPPRLGEFFDIVSGAGFHTLSLKDLSADLAMTMNVFALGVYSRRAEFTERFGAEFVDGLLAGLGSAQETVIRKTRFFMATLRKPAV
modifications: Modified from pMT1
In the case of B12, in data set [2], the “Fold change” value amounted to 0.95.

B13: Q60V: pMT7 with Q60V (protein)
chain: MPQEARTPQQQVTADEVGDWYDKFGEVYHLTLGESVHCGLWFPPDAPVPQDMELVTMSSKAQDRFTDYLIETLDPKAGQHLLDIGCGTGRTALKAARQRGIAVTGVAVSKEQIAAANRLAAGHGLTERLTFEVADAMRLPYEDESFDCAWAIESLCHMDRAKALGEAWRVLKPGGDLLVAEEVVTEELTEPETALFETLFALNVPPRLGEFFDIVSGAGFHTLSLKDLSANLAMTMNVFALGVYSRRAEFTERFGAEFVDGLLAGLGSAQETVIRKTRFFMATLRKPAV
modifications: Modified from pMT1
As to B13, the “in-vivo production of cis-α-irone (in words)” value in data set [2] (single mutations vs parent (pMT7 or pMT12)) is “increased cis-α-irone production in-vivo”. The “in-vitro production” value in data set [3] is on record as “increased the cis-α-irone production in-vitro”.

For the origin of these results see patent publication US20240240209A1, “SYNTHESIS OF ENANTIOPURE CIS-A-IRONE FROM A RENEWABLE CARBON SOURCE” (Agency for Science, Technology and Research, priority 2021, published 2024).
